In assay [1] the target is K145N SAASoti (Stylocoeniella armata). Briefly: SEC; Superdex 200 10/300 GL, 20 mM Tris-HCl 150 mM NaCl pH 7.5, 0.5 ml/min, absorbance at 280 and 509 nm (the legend of Fig. 2 gives Tris-HCl 100 mM, CaCl2 10 mM, pH 7.6); wild type also run with DTT. For orientation: SEC sorts molecules by how far they enter the pores of the column.
The target is the same in assay [2]. Briefly: two-focus fluorescence correlation spectroscopy (2fFCS); diffusion coefficient; 10 mM phosphate buffer, 150 mM NaCl pH 7.4, ~10^-9 M protein, 25 °C.
In assay [3] the target is V127T SAASoti (Stylocoeniella armata). Briefly: SEC; V127T SAASoti at high concentration (0.22 mM).
The target of assay [4] is wild type SAASoti (Stylocoeniella armata). Put plainly: SEC; Superdex 200 10/300 GL, 20 mM Tris-HCl 150 mM NaCl pH 7.5, 0.5 ml/min, absorbance at 280 and 509 nm (the legend of Fig. 2 gives Tris-HCl 100 mM, CaCl2 10 mM, pH 7.6); wild type also run with DTT.
Assay [5] deals with K149N SAASoti (Stylocoeniella armata). The assay is described as above.
The target is the same in assay [6]. Put plainly: two-focus fluorescence correlation spectroscopy (2fFCS); diffusion coefficient; 10 mM phosphate buffer, 150 mM NaCl pH 7.4, ~10^-9 M protein, 25 °C.
Assay [7] addresses K149E SAASoti (Stylocoeniella armata). Put plainly: SEC; Superdex 200 10/300 GL, 20 mM Tris-HCl 150 mM NaCl pH 7.5, 0.5 ml/min, absorbance at 280 and 509 nm (the legend of Fig. 2 gives Tris-HCl 100 mM, CaCl2 10 mM, pH 7.6); wild type also run with DTT.
For assay [8] the target is unchanged. Briefly: two-focus fluorescence correlation spectroscopy (2fFCS); diffusion coefficient; 10 mM phosphate buffer, 150 mM NaCl pH 7.4, ~10^-9 M protein, 25 °C.
The target of assay [9] is K145E SAASoti (Stylocoeniella armata). Briefly: SEC; Superdex 200 10/300 GL, 20 mM Tris-HCl 150 mM NaCl pH 7.5, 0.5 ml/min, absorbance at 280 and 509 nm (the legend of Fig. 2 gives Tris-HCl 100 mM, CaCl2 10 mM, pH 7.6); wild type also run with DTT.

“And” between values parts separate entries of the source, which are not always exact repeats. Equal values may be shown once.

On to K145N SAASoti (natural protein), for which the stoichiometry N in [1] and in assay [2] was 4 each time. For the substance V127T SAASoti (natural protein), in [3], the stoichiometry N (in general, a count of units in the complex or per binding partner) is 2. Regarding wild type SAASoti (natural protein), in [4], the stoichiometry N was 4 and 8.

As to K149N SAASoti (natural protein), the stoichiometry N in [5] and in assay [6] was 4 each time. In the case of K149E SAASoti (natural protein), the stoichiometry N in assay [7] and in assay [8] was 4 each time. In assay [9], K145E SAASoti (natural protein) registered a stoichiometry N of 4.

The values above are taken from publication PMC6195611.
